B1: RSPH3 (parent)
chain: LELQRQREARKRALARKQAQEQLR

Variants of: B1
Experiment: protein stability index of a GFP-peptide fusion (GPS, HEK-293T) (PSI 1-6); higher = more stable
Details: c terminus: a fixed tail appended
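Further: lentivirally expressed fusions sorted by FACS into six bins by GFP to DsRed ratio, PSI derived from sequencing read proportions per bin multiplied by bin number.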

Point of comparison: LELQRQREARKRALARKQAQGQLR, protein stability index 3.09. Against it:
- LELQRQREARKRALARKQAQDQLR — higher, 3.62
- LELQRQREARKRALARKQAQHQLR — higher, 3.23
- LELQRQREARKRALARKQAQWQLR — higher, 3.48
- LELQRQREARKRALARKQAQSQLR — higher, 3.73
- LELQRQREARKRALARKQAQYQLR — lower, 3
- LELQRQREARKRALAQKQAQEQLR — higher, 3.96
- LELQRQREARKRALAKKQAQEQLR — higher, 3.93
- LELQRQREARKRALAMKQAQEQLR — higher, 3.39
- LELQRQREARKRALAAKQAQEQLR — higher, 4.19
- LELQRQREARKRALACKQAQEQLR — higher, 3.57
- LELQRQREARKRALAEKQAQEQLR — higher, 4.26
- LELQRQREARKRALANKQAQEQLR — higher, 4.6
- LELQRQREARKRALATKQAQEQLR — higher, 4.02
- LELQRQREARKRALAPKQAQEQLR — higher, 4.32
- LELGRQREARKRALARKQAQEQLR — higher, 3.41
- LELLRQREARKRALARKQAQEQLR — higher, 3.22
- LELVRQREARKRALARKQAQEQLR — higher, 3.43
- LELDRQREARKRALARKQAQEQLR — higher, 3.96
- LELERQREARKRALARKQAQEQLR — higher, 4.3
- LELTRQREARKRALARKQAQEQLR — higher, 4.06
- LELWRQREARKRALARKQAQEQLR — higher, 3.43
- LELSRQREARKRALARKQAQEQLR — higher, 4.27
- LELRRQREARKRALARKQAQEQLR — higher, 4.02
- LELQRQREARGRALARKQAQEQLR — higher, 4.44
- LELQRQREARMRALARKQAQEQLR — higher, 3.5
- LELQRQREARHRALARKQAQEQLR — higher, 4.44
- LELQRQREARDRALARKQAQEQLR — higher, 4.51
- LELQRQREARIRALARKQAQEQLR — higher, 3.27
- LELQRQREARLRALARKQAQEQLR — higher, 3.82
- LELQRQREARVRALARKQAQEQLR — lower, 2.74
- LELQRQREARRRALARKQAQEQLR — higher, 3.78
- LCLQRQREARKRALARKQAQEQLR — higher, 3.13
- LDLQRQREARKRALARKQAQEQLR — higher, 3.91
- LILQRQREARKRALARKQAQEQLR — lower, 2.34
- LNLQRQREARKRALARKQAQEQLR — higher, 3.69
- LGLQRQREARKRALARKQAQEQLR — lower, 2.95
- LTLQRQREARKRALARKQAQEQLR — higher, 3.15
- LKLQRQREARKRALARKQAQEQLR — higher, 4.11
- LPLQRQREARKRALARKQAQEQLR — higher, 3.58
- LVLQRQREARKRALARKQAQEQLR — lower, 2.79
- LWLQRQREARKRALARKQAQEQLR — lower, 2.59
- LALQRQREARKRALARKQAQEQLR — higher, 3.1
- LELQRYREARKRALARKQAQEQLR — higher, 3.71
- LELQRRREARKRALARKQAQEQLR — higher, 3.41
- LELQRTREARKRALARKQAQEQLR — higher, 3.87
- LELQRGREARKRALARKQAQEQLR — higher, 4.55
- LELQRIREARKRALARKQAQEQLR — lower, 2.98
- LELQRSREARKRALARKQAQEQLR — higher, 3.76
- LELQRWREARKRALARKQAQEQLR — higher, 4.26
- LELQRPREARKRALARKQAQEQLR — higher, 3.64
- LELQRQREARKRALARKQAQEQWR — higher, 3.69
- LELQRQREARKRALARKQAQEQYR — higher, 3.9
- LELQRQREARKRALARKQAQEQMR — higher, 4.31
- LELQRQREARKRALARKQAQEQRR — higher, 4.16
- LELQRQREARKRALARKQAQEQIR — higher, 3.56
- LELQRQREARKRALARKQAQEQVR — lower, 2.77
- LELQRQREARKRALARKQAQEQQR — higher, 4.35
- LELQRQREARKRALARKQAQEQTR — higher, 4.08
- LELQRQREARKRALARKQAQEQCR — higher, 4.26
- LELQRQREARKRALARKQAQEQLW — lower, 2.98
- LELQRQREARKRALARKQAQEQLI — higher, 3.46
- LELQRQREARKRALARKQAQEQLM — higher, 3.33
- LELQRQREARKRALARKQAQEQLK — higher, 3.72
- LELQRQREARKRALARKQAQEQLE — higher, 4.56
- LELQRQREARKRALARKQAQEQLF — higher, 3.77
- LELQRQREARKRALARKQAQEQLP — higher, 3.86
- LELQRQREARKRALARKQAQEQLD — higher, 4.2
- LELQRQREARKRALLRKQAQEQLR — higher, 4.05
- LELQRQREARKRALWRKQAQEQLR — higher, 3.53
- LELQRQREARKRALNRKQAQEQLR — higher, 4.32
- LELQRQREARKRALFRKQAQEQLR — higher, 3.56
- LELQRQREARKRALHRKQAQEQLR — higher, 3.96
- LELQRQREARKRALSRKQAQEQLR — higher, 4.04
- LELQRQREARKRALKRKQAQEQLR — higher, 3.57
- LELQRQRESRKRALARKQAQEQLR — higher, 4.01
- LELQRQREFRKRALARKQAQEQLR — lower, 2.73
- LELQRQRECRKRALARKQAQEQLR — higher, 4.05
- LELQRQRENRKRALARKQAQEQLR — higher, 3.45
- LELQRQREVRKRALARKQAQEQLR — higher, 3.71
- LELQRQREIRKRALARKQAQEQLR — higher, 3.39
- LELQRQREMRKRALARKQAQEQLR — higher, 3.84
- LELQRQREKRKRALARKQAQEQLR — higher, 3.68
- LELQRQREERKRALARKQAQEQLR — higher, 3.85
- LEQQRQREARKRALARKQAQEQLR — higher, 3.9
- LEMQRQREARKRALARKQAQEQLR — higher, 3.6
- LEGQRQREARKRALARKQAQEQLR — higher, 4.43
- LESQRQREARKRALARKQAQEQLR — higher, 4.14
- LEFQRQREARKRALARKQAQEQLR — higher, 3.81
- LEKQRQREARKRALARKQAQEQLR — higher, 4.17
- LEVQRQREARKRALARKQAQEQLR — higher, 4.29
- LEWQRQREARKRALARKQAQEQLR — higher, 3.52
- LELQRQREARKRAEARKQAQEQLR — higher, 4.35
- LELQRQREARKRATARKQAQEQLR — higher, 4.19
